The results in this text go back to paper doi:10.1101/2024.03.12.584565 (bioRxiv, 2024).

The target of one assay is His6-SUMO3-sororin (human, UniProt Q96FF9 1-252). The assay can be described thus: pull-down.
A further assay addresses T1, recombinant human Wapl (human, UniProt Q7Z5K2 1-1190).
T1 sequence: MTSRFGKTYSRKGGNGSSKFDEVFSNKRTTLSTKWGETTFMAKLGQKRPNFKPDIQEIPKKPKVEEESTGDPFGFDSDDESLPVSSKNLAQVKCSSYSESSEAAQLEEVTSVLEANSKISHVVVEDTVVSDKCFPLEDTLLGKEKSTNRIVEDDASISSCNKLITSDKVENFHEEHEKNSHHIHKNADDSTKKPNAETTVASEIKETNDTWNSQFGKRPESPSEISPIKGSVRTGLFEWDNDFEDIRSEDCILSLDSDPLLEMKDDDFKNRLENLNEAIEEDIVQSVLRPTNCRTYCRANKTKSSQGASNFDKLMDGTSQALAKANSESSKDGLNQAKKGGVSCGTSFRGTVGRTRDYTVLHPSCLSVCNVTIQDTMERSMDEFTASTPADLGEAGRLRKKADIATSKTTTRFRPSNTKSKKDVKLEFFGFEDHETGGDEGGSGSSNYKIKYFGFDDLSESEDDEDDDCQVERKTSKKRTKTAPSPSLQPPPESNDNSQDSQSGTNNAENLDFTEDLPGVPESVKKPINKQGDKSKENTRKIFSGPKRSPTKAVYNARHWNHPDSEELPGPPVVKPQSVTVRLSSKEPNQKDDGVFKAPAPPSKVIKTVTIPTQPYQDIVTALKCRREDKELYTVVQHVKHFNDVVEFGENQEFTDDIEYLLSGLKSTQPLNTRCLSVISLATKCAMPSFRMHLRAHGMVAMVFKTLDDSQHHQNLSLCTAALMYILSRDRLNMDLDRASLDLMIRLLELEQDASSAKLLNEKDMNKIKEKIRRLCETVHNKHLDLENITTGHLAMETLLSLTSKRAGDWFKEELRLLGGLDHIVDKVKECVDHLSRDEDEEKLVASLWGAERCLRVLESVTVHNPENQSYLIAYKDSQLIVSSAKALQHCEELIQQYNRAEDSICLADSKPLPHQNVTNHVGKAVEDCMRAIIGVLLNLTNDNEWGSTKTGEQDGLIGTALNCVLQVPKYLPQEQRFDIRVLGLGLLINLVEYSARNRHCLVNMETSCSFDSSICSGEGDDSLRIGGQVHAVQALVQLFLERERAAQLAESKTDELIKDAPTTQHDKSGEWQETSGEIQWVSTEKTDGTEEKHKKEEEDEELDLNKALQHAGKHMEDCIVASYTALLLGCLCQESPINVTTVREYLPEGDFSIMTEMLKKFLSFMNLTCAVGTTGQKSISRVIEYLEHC
The assay can be described thus: pull-down.

His6-SUMO3-sororin, sequence (Q96FF9 whole entry): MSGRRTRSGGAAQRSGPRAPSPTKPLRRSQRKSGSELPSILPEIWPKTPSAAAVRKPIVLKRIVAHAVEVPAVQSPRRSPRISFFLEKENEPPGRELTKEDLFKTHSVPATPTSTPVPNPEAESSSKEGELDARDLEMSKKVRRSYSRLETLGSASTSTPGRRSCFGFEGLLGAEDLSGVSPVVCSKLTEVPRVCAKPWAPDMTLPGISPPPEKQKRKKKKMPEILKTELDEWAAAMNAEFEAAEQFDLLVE

B1: Flag-tagged Pds5b-Ser1177,1182,1209Ala (3A), untreated or exposed to Nek2a (natural protein)
chain: MAHSKTRTNDGKITYPPGVKEISDKISKEEMVRRLKMVVKTFMDMDQDSEEEKELYLNLALHLASDFFLKHPDKDVRLLVACCLADIFRIYAPEAPYTSPDKLKDIFMFITRQLKGLEDTKSPQFNRYFYLLENIAWVKSYNICFELEDSNEIFTQLYRTLFSVINNGHNQKVHMHMVDLMSSIICEGDTVSQELLDTVLVNLVPAHKNLNKQAYDLAKALLKRTAQAIEPYITNFFNQVLMLGKTSISDLSEHVFDLILELYNIDSHLLLSVLPQLEFKLKSNDNEERLQVVKLLAKMFGAKDSELASQNKPLWQCYLGRFNDIHVPIRLECVKFASHCLMNHPDLAKDLTEYLKVRSHDPEEAIRHDVIVSIVTAAKKDILLVNDHLLNFVRERTLDKRWRVRKEAMMGLAQIYKKYALQSAAGKDAAKQIAWIKDKLLHIYYQNSIDDRLLVERIFAQYMVPHNLETTERMKCLYYLYATLDLNAVKALNEMWKCQNLLRHQVKDLLDLIKQPKTDASVKAIFSKVMVITRNLPDPGKAQDFMKKFTQVLEDDEKIRKQLEVLVSPTCSCKQAEGCVREITKKLGNPKQPTNPFLEMIKFLLERIAPVHIDTESISALIKQVNKSIDGTADDEDEGVPTDQAIRAGLELLKVLSFTHPISFHSAETFESLLACLKMDDEKVAEAALQIFKNTGSKIEEDFPHIRSALLPVLHHKSKKGPPRQAKYAIHCIHAIFSSKETQFAQIFEPLHKSLDPSNLEHLITPLVTIGHIALLAPDQFAAPLKSLVATFIVKDLLMNDRLPGKKTTKLWVPDEEVSPETMVKIQAIKMMVRWLLGMKNNHSKSGTSTLRLLTTILHSDGDLTEQGKISKPDMSRLRLAAGSAIVKLAQEPCYHEIITLEQYQLCALAINDECYQVRQVFAQKLHKGLSRLRLPLEYMAICALCAKDPVKERRAHARQCLVKNINVRREYLKQHAAVSEKLLSLLPEYVVPYTIHLLAHDPDYVKVQDIEQLKDVKECLWFVLEILMAKNENNSHAFIRKMVENIKQTKDAQGPDDAKMNEKLYTVCDVAMNIIMSKSTTYSLESPKDPVLPARFFTQPDKNFSNTKNYLPPEMKSFFTPGKPKTTNVLGAVNKPLSSAGKQSQTKSSRMETVSNASSSSNPSSPGRIKGRLDSAEMDHAENEDYTMSSPLPGKKSDKRDDSDLVRAELEKPRGRKKTPVTEQEEKLGMDDLTKLVQEQKPKGSQRSRKRGHTASESDEQQWPEEKRLKEDILENEDEQNSPPKKGKRGRPPKPLGGGTPKEEPTMKTSKKGSKKKSGPPAPEEEEEEERQSGNTEQKSKSKQHRVSRRAQQRAESPESSAIESTQSTPQKGRGRPSKTPSPSQPKKNVRVGRSKQAATKENDSSEEVDVFQGSSPVDDIPQEETEEEEVSTVNVRRRSAKRERR
As for B1, the binding result in the assay with His6-SUMO3-sororin is reported as “binds”.

B2: Flag-tagged Pds5b-Ser1177,1182,1209Ala (3A), phosphorylated by Cdk1/2-cyclin A2 in vitro (natural protein)
chain: MAHSKTRTNDGKITYPPGVKEISDKISKEEMVRRLKMVVKTFMDMDQDSEEEKELYLNLALHLASDFFLKHPDKDVRLLVACCLADIFRIYAPEAPYTSPDKLKDIFMFITRQLKGLEDTKSPQFNRYFYLLENIAWVKSYNICFELEDSNEIFTQLYRTLFSVINNGHNQKVHMHMVDLMSSIICEGDTVSQELLDTVLVNLVPAHKNLNKQAYDLAKALLKRTAQAIEPYITNFFNQVLMLGKTSISDLSEHVFDLILELYNIDSHLLLSVLPQLEFKLKSNDNEERLQVVKLLAKMFGAKDSELASQNKPLWQCYLGRFNDIHVPIRLECVKFASHCLMNHPDLAKDLTEYLKVRSHDPEEAIRHDVIVSIVTAAKKDILLVNDHLLNFVRERTLDKRWRVRKEAMMGLAQIYKKYALQSAAGKDAAKQIAWIKDKLLHIYYQNSIDDRLLVERIFAQYMVPHNLETTERMKCLYYLYATLDLNAVKALNEMWKCQNLLRHQVKDLLDLIKQPKTDASVKAIFSKVMVITRNLPDPGKAQDFMKKFTQVLEDDEKIRKQLEVLVSPTCSCKQAEGCVREITKKLGNPKQPTNPFLEMIKFLLERIAPVHIDTESISALIKQVNKSIDGTADDEDEGVPTDQAIRAGLELLKVLSFTHPISFHSAETFESLLACLKMDDEKVAEAALQIFKNTGSKIEEDFPHIRSALLPVLHHKSKKGPPRQAKYAIHCIHAIFSSKETQFAQIFEPLHKSLDPSNLEHLITPLVTIGHIALLAPDQFAAPLKSLVATFIVKDLLMNDRLPGKKTTKLWVPDEEVSPETMVKIQAIKMMVRWLLGMKNNHSKSGTSTLRLLTTILHSDGDLTEQGKISKPDMSRLRLAAGSAIVKLAQEPCYHEIITLEQYQLCALAINDECYQVRQVFAQKLHKGLSRLRLPLEYMAICALCAKDPVKERRAHARQCLVKNINVRREYLKQHAAVSEKLLSLLPEYVVPYTIHLLAHDPDYVKVQDIEQLKDVKECLWFVLEILMAKNENNSHAFIRKMVENIKQTKDAQGPDDAKMNEKLYTVCDVAMNIIMSKSTTYSLESPKDPVLPARFFTQPDKNFSNTKNYLPPEMKSFFTPGKPKTTNVLGAVNKPLSSAGKQSQTKSSRMETVSNASSSSNPSSPGRIKGRLDSAEMDHAENEDYTMSSPLPGKKSDKRDDSDLVRAELEKPRGRKKTPVTEQEEKLGMDDLTKLVQEQKPKGSQRSRKRGHTASESDEQQWPEEKRLKEDILENEDEQNSPPKKGKRGRPPKPLGGGTPKEEPTMKTSKKGSKKKSGPPAPEEEEEEERQSGNTEQKSKSKQHRVSRRAQQRAESPESSAIESTQSTPQKGRGRPSKTPSPSQPKKNVRVGRSKQAATKENDSSEEVDVFQGSSPVDDIPQEETEEEEVSTVNVRRRSAKRERR
Turning to B2, in the assay with recombinant human Wapl, the binding result is reported as “binds”.

B3: Flag-tagged Pds5b-Ser1161,1166,1177,1182,1209Ala (5A), untreated or exposed to Nek2a and Cdk1/2-cyclin A2 (natural protein)
chain: MAHSKTRTNDGKITYPPGVKEISDKISKEEMVRRLKMVVKTFMDMDQDSEEEKELYLNLALHLASDFFLKHPDKDVRLLVACCLADIFRIYAPEAPYTSPDKLKDIFMFITRQLKGLEDTKSPQFNRYFYLLENIAWVKSYNICFELEDSNEIFTQLYRTLFSVINNGHNQKVHMHMVDLMSSIICEGDTVSQELLDTVLVNLVPAHKNLNKQAYDLAKALLKRTAQAIEPYITNFFNQVLMLGKTSISDLSEHVFDLILELYNIDSHLLLSVLPQLEFKLKSNDNEERLQVVKLLAKMFGAKDSELASQNKPLWQCYLGRFNDIHVPIRLECVKFASHCLMNHPDLAKDLTEYLKVRSHDPEEAIRHDVIVSIVTAAKKDILLVNDHLLNFVRERTLDKRWRVRKEAMMGLAQIYKKYALQSAAGKDAAKQIAWIKDKLLHIYYQNSIDDRLLVERIFAQYMVPHNLETTERMKCLYYLYATLDLNAVKALNEMWKCQNLLRHQVKDLLDLIKQPKTDASVKAIFSKVMVITRNLPDPGKAQDFMKKFTQVLEDDEKIRKQLEVLVSPTCSCKQAEGCVREITKKLGNPKQPTNPFLEMIKFLLERIAPVHIDTESISALIKQVNKSIDGTADDEDEGVPTDQAIRAGLELLKVLSFTHPISFHSAETFESLLACLKMDDEKVAEAALQIFKNTGSKIEEDFPHIRSALLPVLHHKSKKGPPRQAKYAIHCIHAIFSSKETQFAQIFEPLHKSLDPSNLEHLITPLVTIGHIALLAPDQFAAPLKSLVATFIVKDLLMNDRLPGKKTTKLWVPDEEVSPETMVKIQAIKMMVRWLLGMKNNHSKSGTSTLRLLTTILHSDGDLTEQGKISKPDMSRLRLAAGSAIVKLAQEPCYHEIITLEQYQLCALAINDECYQVRQVFAQKLHKGLSRLRLPLEYMAICALCAKDPVKERRAHARQCLVKNINVRREYLKQHAAVSEKLLSLLPEYVVPYTIHLLAHDPDYVKVQDIEQLKDVKECLWFVLEILMAKNENNSHAFIRKMVENIKQTKDAQGPDDAKMNEKLYTVCDVAMNIIMSKSTTYSLESPKDPVLPARFFTQPDKNFSNTKNYLPPEMKSFFTPGKPKTTNVLGAVNKPLSSAGKQSQTKSSRMETVSNASSASNPSAPGRIKGRLDSAEMDHAENEDYTMSSPLPGKKSDKRDDSDLVRAELEKPRGRKKTPVTEQEEKLGMDDLTKLVQEQKPKGSQRSRKRGHTASESDEQQWPEEKRLKEDILENEDEQNSPPKKGKRGRPPKPLGGGTPKEEPTMKTSKKGSKKKSGPPAPEEEEEEERQSGNTEQKSKSKQHRVSRRAQQRAESPESSAIESTQSTPQKGRGRPSKTPSPSQPKKNVRVGRSKQAATKENDSSEEVDVFQGSSPVDDIPQEETEEEEVSTVNVRRRSAKRERR
On to B3, for which, in the assay with His6-SUMO3-sororin, the binding result is reported as “binds”.
